Experimental data published in FireProtDB.
Values joined by “and” are separate entries in the source; they are usually repeats but may differ in a detail not shown here. Equal entries are not always repeated.

B1: Phosphoglycerate kinase 1, P00558 (parent)
chain: MSLSNKLTLDKLDVKGKRVVMRVDFNVPMKNNQITNNQRIKAAVPSIKFCLDNGAKSVVLMSHLGRPDGVPMPDKYSLEPVAVELKSLLGKDVLFLKDCVGPEVEKACANPAAGSVILLENLRFHVEEEGKGKDASGNKVKAEPAKIEAFRASLSKLGDVYVNDAFGTAHRAHSSMVGVNLPQKAGGFLMKKELNYFAKALESPERPFLAILGGAKVADKIQLINNMLDKVNEMIIGGGMAFTFLKVLNNMEIGTSLFDEEGAKIVKDLMSKAEKNGVKITLPVDFVTADKFDENAKTGQATVASGIPAGWMGLDCGPESSKKYAEAVTRAKQIVWNGPVGVFEWEAFARGTKALMDEVVKATSRGCITIIGGGDTATCCAKWNTEDKVSHVSTGGGASLELLEGKVLPGVDALSNI
B2: Inorganic pyrophosphatase, P0A7A9 (parent)
chain: MSLLNVPAGKDLPEDIYVVIEIPANADPIKYEIDKESGALFVDRFMSTAMFYPCNYGYINHTLSLDGDPVDVLVPTPYPLQPGSVIRCRPVGVLKMTDEAGEDAKLVAVPHSKLSKEYDHIKDVNDLPELLKAQIAHFFEHYKDLEKGKWVKVEGWENAEAAKAEIVASFERAKNK
B3: Phosphoglycerate kinase, P18912 (parent)
chain: MNKKTIRDVDVRGKRVFCRVDFNVPMEQGAITDDTRIRAALPTIRYLIEHGAKVILASHLGRPKGKVVEELRLDAVAKRLGELLERPVAKTNEAVGDEVKAAVDRLNEGDVLLLENVRFYPGEEKNDPELAKAFAELADLYVNDAFGAAHRAHASTEGIAHYLPAVAGFLMEKELEVLGKALSNPDRPFTAIIGGAKVKDKIGVIDNLLEKVDNLIIGGGLAYTFVKALGHDVGKSLLEEDKIELAKSFMEKAKEKGVRFYMPVDVVVADRFANDANTKVVPIDAIPADWSALDIGPKTRELYRDVIRESKLVVWNGPMGVFEMDAFAHGTKAIAEALAEALDTYSVIGGGDSAAAVEKFGLADKMDHISTGGGASLEFMEGKQLPGVVALEDK
B4: Lysozyme C, P61626 (parent)
chain: MKALIVLGLVLLSVTVQGKVFERCELARTLKRLGMDGYRGISLANWMCLAKWESGYNTRATNYNAGDRSTDYGIFQINSRYWCNDGKTPGAVNACHLSCSALLQDNIADAVACAKRVVRDPQGIRAWVAWRNRCQNRDVRQYVQGCGV
B5: DNA-binding transcriptional dual regulator CRP, P0ACJ8 (parent)
chain: MVLGKPQTDPTLEWFLSHCHIHKYPSKSTLIHQGEKAETLYYIVKGSVAVLIKDEEGKEMILSYLNQGDFIGELGLFEEGQERSAWVRAKTACEVAEISYKKFRQLIQVNPDILMRLSAQMARRLQVTSEKVGNLAFLDVTGRIAQTLLNLAKQPDAMTHPDGMQIKITRQEIGQIVGCSRETVGRILKMLEDQNLISAHGKTIVVYGTR
B6: D151S, Q2YD82 (parent)
chain: MDCAEGRAANLPCNHSTISGNEYVYWYRQIHSQGPQYIIHGLKNNETNEMASLIITEDRKSSTLILPHATLRDTAVYYCIVYDYGQNFVFGPGTRLSVLPYIQNPDPAVYQLRDSKSSDKSVCLFTDFDSQTNVSQSKDSDVYITDKTVLDMRSMDFKSNSAVAWSNKSDFACANAFNNSIIPEDTFFPSPESSCDVKLVEKSFETDTNLNFQNLSVIGFRILLLKVAGFNLLMTLRLWSS
B7: L-asparaginase 2, P00805 (parent)
chain: MEFFKKTALAALVMGFSGAALALPNITILATGGTIAGGGDSATKSNYTVGKVGVENLVNAVPQLKDIANVKGEQVVNIGSQDMNDNVWLTLAKKINTDCDKTDGFVITHGTDTMEETAYFLDLTVKCDKPVVMVGAMRPSTSMSADGPFNLYNAVVTAADKASANRGVLVVMNDTVLDGRDVTKTNTTDVATFKSVNYGPLGYIHNGKIDYQRTPARKHTSDTPFDVSKLNELPKVGIVYNYANASDLPAKALVDAGYDGIVSAGVGNGNLYKSVFDTLATAAKTGTAVVRSSRVPTGATTQDAEVDDAKYGFVASGTLNPQKARVLLQLALTQTKDPQQIQQIFNQY
B8: N154D, Q8GB52 (parent)
chain: MLKKVLSCCIAATFGIYSASSLAQSSVINSTENSQQPIAPLVLASSDDAITDRYIVVLKQPQMLMNDAAGLQQFTQQTVGLMANSFSIKTDDVFDSSIIGFVANLDALQLKQLRRDSRVEYIEQDQILSIDPVVSNEAVQSNAIWGLDRIDQRNLPLDRNYNANFDGFGVTAYVIDTGVNNNHEEFGGRSVSGYDFVDNDADSSDCNGHGTHVAGTIGGSQYGVAKNVNIVGVRVLSCSGSGTTSGVISGVDWVAQNASGPSVANMSLGGGQSTALDSAVQGAIQSGVSFMLAAGNSNADACNTSPARVPSGVTVGSTTSSDSRSSFSNWGSCVDLFAPGSQIKSAWYDGGYKTISGTSMATPHVAGVAALYLQENNGLTPLQLTGLLNSRASENKVSDTRGTTNKLLYSLADSGCEPDCGGPTPGPDPDGKLVSGVPVNGLSGSRGQKDYFYMDLQQGQQLTVVTIGGTGDADLYLRFGDKPTLNTWDCRPYRSGNSETCTVNVTQSGRYHVMLNAYSAYSGLTLQANF
B9: Glutathione S-transferase Mu 1, P04905 (parent)
chain: MPMILGYWNVRGLTHPIRLLLEYTDSSYEEKRYAMGDAPDYDRSQWLNEKFKLGLDFPNLPYLIDGSRKITQSNAIMRYLARKHHLCGETEEERIRADIVENQVMDNRMQLIMLCYNPDFEKQKPEFLKTIPEKMKLYSEFLGKRPWFAGDKVTYVDFLAYDILDQYHIFEPKCLDAFPNLKDFLARFEGLKKISAYMKSSRYLSTPIFSKLAQWSNK
B10: Amicyanin, P22364 (parent)
chain: MISATKIRSCLAACVLAAFGATGALADKATIPSESPFAAAEVADGAIVVDIAKMKYETPELHVKVGDTVTWINREAMPHNVHFVAGVLGEAALKGPMMKKEQAYSLTFTEAGTYDYHCTPHPFMRGKVVVE
B11: DNA-Binding protein, P69542 (parent)
chain: MIKVEIKPSQAQFTTRSGVSRQGKPYSLNEQLCYVDLGNEYPVLVKITLDEGQPAYAPGLYTVHLSSFKVGQFGSLMIDRLRLVPAK
B12: Phosphoglycerate kinase, P00560 (parent)
chain: MSLSSKLSVQDLDLKDKRVFIRVDFNVPLDGKKITSNQRIVAALPTIKYVLEHHPRYVVLASHLGRPNGERNEKYSLAPVAKELQSLLGKDVTFLNDCVGPEVEAAVKASAPGSVILLENLRYHIEEEGSRKVDGQKVKASKEDVQKFRHELSSLADVYINDAFGTAHRAHSSMVGFDLPQRAAGFLLEKELKYFGKALENPTRPFLAILGGAKVADKIQLIDNLLDKVDSIIIGGGMAFTFKKVLENTEIGDSIFDKAGAEIVPKLMEKAKAKGVEVVLPVDFIIADAFSADANTKTVTDKEGIPAGWQGLDNGPESRKLFAATVAKAKTIVWNGPPGVFEFEKFAAGTKALLDEVVKSSAAGNTVIIGGGDTATVAKKYGVTDKISHVSTGGGASLELLEGKELPGVAFLSEKK

Variants of: B1
Conditions: Homo sapiens; pH 7.4; 25 °C; Urea; CD; HEPES 20mM; NaCl 200 mM; transition: 2; reversible: Yes; structure 2WZB; whole UniProt chain shown

Row | Variant | ddG of mutation (higher = less stable) | denaturant m value | denaturant midpoint (higher = more stable) | unfolding free energy
1 | E252A | 2.93 kJ/mol | 3.2 kcal/mol/M | 2.37 M | 31.8 kJ/mol
2 | T378P | 20.1 kJ/mol | 1.5 kcal/mol/M | 2.28 M | 14.6 kJ/mol

Variants of: B2
Conditions: Escherichia coli (strain K12); pH 7; Thermal; CD; HEPES 20 mM; MgCl2 5 mM; structure 1FAJ; whole UniProt chain shown

Row | Variant | Tm
3 | D27N | 83 °C

Same assay, conditions: Escherichia coli (strain K12); pH 7; Thermal; CD; HEPES 20 mM; structure 1FAJ; whole UniProt chain shown

Row | Variant | Tm
4 | D27N | 58 °C

Variants of: B3
Conditions: Geobacillus stearothermophilus; pH 7.2; 25 °C; GdnHCl; Fluorescence; TEA 50 mM; reversible: no; structure 1PHP; whole UniProt chain shown

Row | Variant | unfolding free energy
5 | I217A L221A | 23.8 kJ/mol and 40.2 kJ/mol

Variants of: B4
Conditions: Homo sapiens; pH 4; 10 °C; GdnHCl; CD; GdnHCl 40 mM; reversible: yes; structure 1LZ1; whole UniProt chain shown

Row | Variant | ddG of mutation (higher = less stable) | denaturant m value | denaturant midpoint (higher = more stable) | unfolding free energy
6 | I74T | 27.9 kJ/mol | 2.96 kcal/mol/M | 2.7 M | 30.6 kJ/mol
7 | D85H | 19 kJ/mol | 3.2 kcal/mol/M | 3.1 M | 39.5 kJ/mol

Same assay, conditions: Homo sapiens; pH 2.35; 36.7 °C; Thermal; DSC; Gly-HCl 0.05 M; reversible: yes; structure 1LZ1; whole UniProt chain shown

Row | Variant | unfolding enthalpy (calorimetric) | unfolding enthalpy (van 't Hoff)
8 | I77A | 233 kJ/mol | 243 kJ/mol

Same assay, conditions: Homo sapiens; pH 2.9; 47.2 °C; Thermal; DSC; Gly-HCl 0.05 M; reversible: yes; structure 1LZ1; whole UniProt chain shown

Row | Variant | unfolding enthalpy (calorimetric) | unfolding enthalpy (van 't Hoff)
9 | I77A | 304 kJ/mol | 313 kJ/mol

Same assay, conditions: Homo sapiens; pH 3; 10 °C; GdnHCl; Fluorescence; glycine-HCl 40 mM; reversible: yes; structure 1LZ1; whole UniProt chain shown

Row | Variant | ddG of mutation (higher = less stable) | unfolding free energy
10 | C95A C113A | 23.8 kJ/mol | 25.5 kJ/mol

Same assay, conditions: Homo sapiens; pH 4; 10 °C; GdnHCl; CD; glycine-HCl 40 mM; reversible: yes; structure 1LZ1; whole UniProt chain shown

Row | Variant | ddG of mutation (higher = less stable) | unfolding free energy
11 | C95A C113A | 24.3 kJ/mol | 34.3 kJ/mol

Same assay, conditions: Homo sapiens; pH 5.2; 20 °C; GdnHCl; CD; Sodium acetate 20 mM; reversible: yes; structure 1LZ1; whole UniProt chain shown

Row | Variant | ddG of mutation (higher = less stable) | denaturant m value | denaturant midpoint (higher = more stable) | unfolding free energy
12 | W82C C83A | 9.2 kJ/mol | 3.3 kcal/mol/M | 3.79 M | 52.3 kJ/mol

Variants of: B5
Conditions: Escherichia coli (strain K12); pH 7.9; 20 °C; Thermal; CD; Tris-HCl 50 mM; KCl 100 mM; reversible: yes; structure 1G6N; whole UniProt chain shown

Row | Variant | ddG of mutation (higher = less stable) | unfolding free energy
13 | S129A | 1.09 kJ/mol | 29.5 kJ/mol

Variants of: B6
Conditions: Homo sapiens; Thermal; fluorescence; structure 6U07; whole UniProt chain shown

Row | Variant | Tm | change of melting temperature, mutant - wild type (higher = more stable)
14 | D151S | 53.3 °C | -1.6 °C
15 | S121F | 58.5 °C | 5.2 °C
16 | T132I | 55.7 °C | 0.8 °C

Variants of: B7
Conditions: Escherichia coli (strain K12); pH 7.4; 25 °C; Urea; Fluorescence; Tris-HCl 50 mM; structure 3ECA; whole UniProt chain shown

Row | Variant | unfolding free energy
17 | T34S | 47 kJ/mol
18 | T34A | 48 kJ/mol
19 | T141A | 48 kJ/mol
20 | S144A | 52 kJ/mol

Variants of: B8
Conditions: Vibrio sp. PA-44; pH 8.6; Thermal; CD; Glycine 25 mM; NaCl and CaCl2 100 mM and 15 mM; structure 1SH7; whole UniProt chain shown

Row | Variant | Tm | change of melting temperature, mutant - wild type (higher = more stable)
21 | N154D | 66.3 °C and 68.2 °C | 2.7 °C and 3.1 °C
22 | N154D K396R | 65.1 °C | 1.5 °C

Variants of: B9
Conditions: Rattus norvegicus; pH 6.5; 20 °C; Urea; CD; NaH2PO4 20 mM; NaCl 0.1 M; reversible: Yes; structure 1GSB; whole UniProt chain shown

Row | Variant | denaturant m value | denaturant midpoint (higher = more stable) | unfolding free energy
23 | F57S R82A | 2 kcal/mol/M | 4.6 M | 42.3 kJ/mol

Variants of: B10
Conditions: Paracoccus denitrificans; pH 7.5; Thermal; absorbance; Potassium Phosphate Buffer 10 mM; structure 2OV0; whole UniProt chain shown

Row | Variant | Tm
24 | W71Y | 53.9 °C

Variants of: B11
Conditions: Enterobacteria phage fd; pH 7; 25 °C; GdnHCl; CD; MOPS 50 mM; NaCl 100 mM; reversible: yes; structure 1VQB; whole UniProt chain shown

Row | Variant | unfolding free energy
25 | T48V | 0 kJ/mol
26 | E30M | 2.51 kJ/mol
27 | T62V | 5.44 kJ/mol
28 | K24V | 3.35 kJ/mol
29 | L32W | 11.7 kJ/mol
30 | K69M | 0.418 kJ/mol

Variants of: B12
Conditions: Saccharomyces cerevisiae (strain ATCC 204508 / S288c); pH 7.5; 22 °C; GdnHCl; CD; Tris 20 mM; structure 3PGK; whole UniProt chain shown

Row | Variant | ddG of mutation (higher = less stable) | denaturant midpoint (higher = more stable) | unfolding free energy
31 | W309Y | 15.1 kJ/mol | 0.55 M | 17.6 kJ/mol

Same assay, conditions: Saccharomyces cerevisiae (strain ATCC 204508 / S288c); pH 6.2; 20 °C; GdnHCl; CD; potassium phosphate 50 mM; structure 3PGK; whole UniProt chain shown

Row | Variant | denaturant m value | unfolding free energy
32 | W309F | 18 kcal/mol/M | 43.1 kJ/mol

Same assay, conditions: Saccharomyces cerevisiae (strain ATCC 204508 / S288c); pH 6.2; 20 °C; Thermal; CD; potassium phosphate 20 mM; structure 3PGK; whole UniProt chain shown

Row | Variant | unfolding free energy
33 | W309F | 22.7 kJ/mol

Same assay, conditions: Saccharomyces cerevisiae (strain ATCC 204508 / S288c); pH 6.5; 25 °C; GdnHCl; CD; Sodium phosphate 20 mM; reversible: yes; structure 3PGK; whole UniProt chain shown

Row | Variant | ddG of mutation (higher = less stable) | denaturant m value | unfolding free energy
34 | H389Q | 3.51 kJ/mol | 6.08 kcal/mol/M | 12.5 kJ/mol
